Data on 79 substances can be found in the Human Domainome abundance scans (Beltran et al. 2025).

± gives the uncertainty stated by the source.

The data set in a line: abundance fitness (aPCA) (normalised: wild type 0, dead -1); higher = more abundant; growth selection in yeast, the domain comes from the species named. Particulars: Homo sapiens.
As to “NEDD4-like E3 ubiquitin-protein ligase WWP2 I441T, O00308”, the abundance fitness stood at 0.009 ± 0.04.
The substance “NEDD4-like E3 ubiquitin-protein ligase WWP2 I441V, O00308” returned an abundance fitness of -0.14 ± 0.048.
With “NEDD4-like E3 ubiquitin-protein ligase WWP2 I441W, O00308”, the abundance fitness was -0.297 ± 0.067.
For “NEDD4-like E3 ubiquitin-protein ligase WWP2 I441Y, O00308”, the abundance fitness is -0.33 ± 0.11.
For “NEDD4-like E3 ubiquitin-protein ligase WWP2 K453A, O00308” the value was 0.037 ± 0.046; for “NEDD4-like E3 ubiquitin-protein ligase WWP2 K453C, O00308”, -0.226 ± 0.079.
Take “NEDD4-like E3 ubiquitin-protein ligase WWP2 K453D, O00308”: the abundance fitness is -0.029 ± 0.067.
Substance “NEDD4-like E3 ubiquitin-protein ligase WWP2 K453E, O00308” registered an abundance fitness of -0.23 ± 0.058.
Turning to “NEDD4-like E3 ubiquitin-protein ligase WWP2 K453F, O00308”, the abundance fitness is -0.006 ± 0.075.
For the substance “NEDD4-like E3 ubiquitin-protein ligase WWP2 K453G, O00308”, the abundance fitness is -0.328 ± 0.052.
For “NEDD4-like E3 ubiquitin-protein ligase WWP2 K453H, O00308” the value was -0.137 ± 0.047.
Regarding “NEDD4-like E3 ubiquitin-protein ligase WWP2 K453I, O00308”, the abundance fitness is -0.167 ± 0.053.
In turn, “NEDD4-like E3 ubiquitin-protein ligase WWP2 K453L, O00308” displayed an abundance fitness of 0.034 ± 0.038.
For “NEDD4-like E3 ubiquitin-protein ligase WWP2 K453M, O00308” the value was -0.006 ± 0.05; for “NEDD4-like E3 ubiquitin-protein ligase WWP2 K453N, O00308”, -0.316 ± 0.063.
For “NEDD4-like E3 ubiquitin-protein ligase WWP2 K453P, O00308” the value was -1.01 ± 0.12; for “NEDD4-like E3 ubiquitin-protein ligase WWP2 K453R, O00308”, -0.043 ± 0.045; for “NEDD4-like E3 ubiquitin-protein ligase WWP2 K453S, O00308”, -0.183 ± 0.042.
For “NEDD4-like E3 ubiquitin-protein ligase WWP2 K453T, O00308”, the abundance fitness was -0.128 ± 0.056.
With “NEDD4-like E3 ubiquitin-protein ligase WWP2 K453V, O00308”, the abundance fitness is -0.063 ± 0.05.
For “NEDD4-like E3 ubiquitin-protein ligase WWP2 K453W, O00308” the value was -0.013 ± 0.059; for “NEDD4-like E3 ubiquitin-protein ligase WWP2 K453Y, O00308”, -0.153 ± 0.042; for “NEDD4-like E3 ubiquitin-protein ligase WWP2 K473A, O00308”, -0.111 ± 0.045.
“NEDD4-like E3 ubiquitin-protein ligase WWP2 K473C, O00308”: the abundance fitness is -0.003 ± 0.066.
For “NEDD4-like E3 ubiquitin-protein ligase WWP2 K473E, O00308” the value was -0.059 ± 0.035.
Consider “NEDD4-like E3 ubiquitin-protein ligase WWP2 K473F, O00308”, for which the abundance fitness is 0.102 ± 0.082.
To “NEDD4-like E3 ubiquitin-protein ligase WWP2 K473H, O00308” belongs -0.1 ± 0.055; to “NEDD4-like E3 ubiquitin-protein ligase WWP2 K473I, O00308”, 0.028 ± 0.07.
As to “NEDD4-like E3 ubiquitin-protein ligase WWP2 K473L, O00308”, the abundance fitness is -0.165 ± 0.058.
The substance “NEDD4-like E3 ubiquitin-protein ligase WWP2 K473M, O00308” showed an abundance fitness of 0.093 ± 0.08.
Regarding “NEDD4-like E3 ubiquitin-protein ligase WWP2 K473N, O00308”, the abundance fitness is -0.402 ± 0.095.
Regarding “NEDD4-like E3 ubiquitin-protein ligase WWP2 K473P, O00308”, the abundance fitness is -1.11 ± 0.12.
“NEDD4-like E3 ubiquitin-protein ligase WWP2 K473Q, O00308” gave an abundance fitness of -0.091 ± 0.082.
“NEDD4-like E3 ubiquitin-protein ligase WWP2 K473R, O00308” showed an abundance fitness of -0.081 ± 0.055.
The substance “NEDD4-like E3 ubiquitin-protein ligase WWP2 K473S, O00308” yielded an abundance fitness of -0.128 ± 0.055.
“NEDD4-like E3 ubiquitin-protein ligase WWP2 K473T, O00308” returned an abundance fitness of -0.097 ± 0.066.
In the case of “NEDD4-like E3 ubiquitin-protein ligase WWP2 K473V, O00308”, the abundance fitness is 0.112 ± 0.041.
As for “NEDD4-like E3 ubiquitin-protein ligase WWP2 K473W, O00308”, the abundance fitness was -0.026 ± 0.075.
Take “NEDD4-like E3 ubiquitin-protein ligase WWP2 K473Y, O00308”: the abundance fitness turned out to be 0.087 ± 0.071.
In the case of “NEDD4-like E3 ubiquitin-protein ligase WWP2 K484A, O00308”, the abundance fitness is -0.073 ± 0.058.
“NEDD4-like E3 ubiquitin-protein ligase WWP2 K484C, O00308” returned an abundance fitness of -0.033 ± 0.055.
Regarding “NEDD4-like E3 ubiquitin-protein ligase WWP2 K484D, O00308”, the abundance fitness is -0.028 ± 0.073.
For the substance “NEDD4-like E3 ubiquitin-protein ligase WWP2 K484E, O00308”, the abundance fitness was -0.037 ± 0.061.
“NEDD4-like E3 ubiquitin-protein ligase WWP2 K484F, O00308” gave an abundance fitness of -0.24 ± 0.073.
Take “NEDD4-like E3 ubiquitin-protein ligase WWP2 K484H, O00308”: the abundance fitness was -0.192 ± 0.081.
With “NEDD4-like E3 ubiquitin-protein ligase WWP2 K484I, O00308”, the abundance fitness was -0.157 ± 0.064.
Substance “NEDD4-like E3 ubiquitin-protein ligase WWP2 K484L, O00308” yielded an abundance fitness of -0.064 ± 0.03.
To “NEDD4-like E3 ubiquitin-protein ligase WWP2 K484M, O00308” belongs 0.044 ± 0.058; to “NEDD4-like E3 ubiquitin-protein ligase WWP2 K484N, O00308”, -0.056 ± 0.053; to “NEDD4-like E3 ubiquitin-protein ligase WWP2 K484P, O00308”, -0.05 ± 0.034.
Substance “NEDD4-like E3 ubiquitin-protein ligase WWP2 K484Q, O00308” yielded an abundance fitness of -0.025 ± 0.068.
Take “NEDD4-like E3 ubiquitin-protein ligase WWP2 K484R, O00308”: the abundance fitness was -0.062 ± 0.038.
Regarding “NEDD4-like E3 ubiquitin-protein ligase WWP2 K484S, O00308”, the abundance fitness was -0.007 ± 0.037.
Consider “NEDD4-like E3 ubiquitin-protein ligase WWP2 K484T, O00308”, for which the abundance fitness was -0.025 ± 0.039.
Consider “NEDD4-like E3 ubiquitin-protein ligase WWP2 K484V, O00308”, for which the abundance fitness is -0.143 ± 0.046.
For the substance “NEDD4-like E3 ubiquitin-protein ligase WWP2 K484W, O00308”, the abundance fitness is -0.101 ± 0.052.
To “NEDD4-like E3 ubiquitin-protein ligase WWP2 K484Y, O00308” belongs -0.071 ± 0.029; to “NEDD4-like E3 ubiquitin-protein ligase WWP2 L446A, O00308”, -0.4 ± 0.037; to “NEDD4-like E3 ubiquitin-protein ligase WWP2 L446C, O00308”, -0.065 ± 0.054.
Turning to “NEDD4-like E3 ubiquitin-protein ligase WWP2 L446D, O00308”, the abundance fitness was -0.556 ± 0.048.
To “NEDD4-like E3 ubiquitin-protein ligase WWP2 L446E, O00308” belongs -0.576 ± 0.051; to “NEDD4-like E3 ubiquitin-protein ligase WWP2 L446F, O00308”, -0.011 ± 0.07.
For “NEDD4-like E3 ubiquitin-protein ligase WWP2 L446H, O00308”, the abundance fitness is -0.641 ± 0.12.
Substance “NEDD4-like E3 ubiquitin-protein ligase WWP2 L446I, O00308” registered an abundance fitness of -0.214 ± 0.081.
“NEDD4-like E3 ubiquitin-protein ligase WWP2 L446K, O00308”: the abundance fitness was -0.688 ± 0.094.
Substance “NEDD4-like E3 ubiquitin-protein ligase WWP2 L446M, O00308” returned an abundance fitness of -0.05 ± 0.03.
Substance “NEDD4-like E3 ubiquitin-protein ligase WWP2 L446P, O00308” came in with an abundance fitness of -0.394 ± 0.083.
To “NEDD4-like E3 ubiquitin-protein ligase WWP2 L446Q, O00308” belongs -0.491 ± 0.058; to “NEDD4-like E3 ubiquitin-protein ligase WWP2 L446R, O00308”, -0.901 ± 0.054.
“NEDD4-like E3 ubiquitin-protein ligase WWP2 L446S, O00308” showed an abundance fitness of -0.601 ± 0.054.
For the substance “NEDD4-like E3 ubiquitin-protein ligase WWP2 L446T, O00308”, the abundance fitness was -0.384 ± 0.071.
To “NEDD4-like E3 ubiquitin-protein ligase WWP2 L446V, O00308” belongs -0.29 ± 0.052; to “NEDD4-like E3 ubiquitin-protein ligase WWP2 L446W, O00308”, -0.435 ± 0.065; to “NEDD4-like E3 ubiquitin-protein ligase WWP2 L446Y, O00308”, -0.072 ± 0.07.
Turning to “NEDD4-like E3 ubiquitin-protein ligase WWP2 M440A, O00308”, the abundance fitness was -0.137 ± 0.1.
“NEDD4-like E3 ubiquitin-protein ligase WWP2 M440C, O00308” yielded an abundance fitness of -0.491 ± 0.32.
In turn, “NEDD4-like E3 ubiquitin-protein ligase WWP2 M440D, O00308” registered an abundance fitness of -0.138 ± 0.29.
“NEDD4-like E3 ubiquitin-protein ligase WWP2 M440E, O00308” showed an abundance fitness of -0.085 ± 0.11.
“NEDD4-like E3 ubiquitin-protein ligase WWP2 M440G, O00308”: the abundance fitness was -0.284 ± 0.11.
